# What was measured:
# [1] = target: prostate specific membrane antigen (PSMA), full-length human (human) (UniProt Q04609); assay: cell-based or functional assay
# [2] = target: prostate specific membrane antigen (PSMA), full-length human (human) (UniProt Q04609); assay: fraction of radiolabeled mAb bound to excess cells, PSMA-3T3 (bracket: 3T3 control)
# [3] = target: prostate specific membrane antigen (PSMA), full-length human (human) (UniProt Q04609); assay: fraction of radiolabeled mAb bound to excess cells, PSMA-3T3
# [4] = target: prostate specific membrane antigen (PSMA), full-length human (human) (UniProt Q04609); assay: fraction of radiolabeled mAb bound to excess cells, average of runs
# Chain of prostate specific membrane antigen (PSMA), full-length human (human) (Q04609 whole entry): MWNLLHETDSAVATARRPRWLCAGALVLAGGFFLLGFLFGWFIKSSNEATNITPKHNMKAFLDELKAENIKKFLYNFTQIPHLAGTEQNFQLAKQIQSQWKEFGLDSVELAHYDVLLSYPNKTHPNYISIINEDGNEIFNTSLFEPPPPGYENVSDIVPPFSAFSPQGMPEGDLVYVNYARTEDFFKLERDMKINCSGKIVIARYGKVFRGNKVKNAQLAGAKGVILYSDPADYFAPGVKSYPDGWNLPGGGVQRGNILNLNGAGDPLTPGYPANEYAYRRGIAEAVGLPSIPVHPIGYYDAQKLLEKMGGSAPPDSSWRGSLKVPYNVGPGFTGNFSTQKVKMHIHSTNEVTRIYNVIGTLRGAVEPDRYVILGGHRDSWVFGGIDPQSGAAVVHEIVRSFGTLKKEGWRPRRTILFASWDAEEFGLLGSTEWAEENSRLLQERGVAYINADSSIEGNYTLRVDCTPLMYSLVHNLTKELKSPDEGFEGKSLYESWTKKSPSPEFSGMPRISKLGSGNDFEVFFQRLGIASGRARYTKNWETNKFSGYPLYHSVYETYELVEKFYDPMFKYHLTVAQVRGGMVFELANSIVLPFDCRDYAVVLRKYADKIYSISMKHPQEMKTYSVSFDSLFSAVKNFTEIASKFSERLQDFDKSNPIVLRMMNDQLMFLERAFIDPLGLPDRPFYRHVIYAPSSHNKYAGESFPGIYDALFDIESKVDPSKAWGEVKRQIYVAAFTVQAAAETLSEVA
Substance,"immunotoxin cytotoxicity (saporin-linked secondary antibody) on C4-2 cells, LD50 [1]","immunotoxin cytotoxicity (saporin-linked secondary antibody) on PSMA-3T3 cells, LD50 [1]",Immunoreactivity (%) [2],Immunoreactivity (%) [3],"Immunoreactivity (%), average [4]"
mJ591 (antibody),88.2 pM,89 pM,–,–,–
^111In mJ591 (In-111 labeled CHX-A''-DTPA mJ591) (antibody),–,–,54.9%,58.5%,56.7%
